Data taken from US6960440 (TRUSTES OF COLUMBIA UNIVERSITY IN THE CITY OF NEW YORK, dated 2005).

Target: the molecule itself
Experiment: SDS-PAGE and Western blot of NADE overexpressed in 293T cells, wild type against Cys-to-Ser mutants

B1: Myc-tagged mouse NADE expressed in 293T cells (pcDNA3.1(-)Myc-HisA/NADE) (other, not shown: small tags and cut ends)
chain: MANVHQENEEMEQPLQNGEEDRPVGGGEGHQPAGNNNNNNHNHNHNHHRRGQARRLAPNFRWAIPNRQMNDGLGGDGDDMEMFMEEMREIRRKLRELQLRNCLRILMGELSNHHDHHDEFCLMP
notes: It runs as 22 kDa and 44 kDa bands; also called Myc-tagged NADE; wild type NADE
**Q.** Does B1 bind?
**A.** Result: binds
